The source of these data is patent publication US20230255948A1 (Stanford University, published 2023).

The target in test [1] is α9β1 integrin on mouse RAW macrophage cells (mouse, UniProt B8JK39 29-1036; P09055 21-798). In words: cell-based or functional assay.
For test [2], the target named is α4β1 integrin on mouse B16 melanoma cells and mouse RAW macrophage cells (mouse, UniProt Q00651 41-1039; P09055 21-798). In words: cell-based or functional assay.
α4β1 integrin on mouse B16 melanoma cells and mouse RAW macrophage cells, sequence (Q00651 41-1039, chain 1 of 2): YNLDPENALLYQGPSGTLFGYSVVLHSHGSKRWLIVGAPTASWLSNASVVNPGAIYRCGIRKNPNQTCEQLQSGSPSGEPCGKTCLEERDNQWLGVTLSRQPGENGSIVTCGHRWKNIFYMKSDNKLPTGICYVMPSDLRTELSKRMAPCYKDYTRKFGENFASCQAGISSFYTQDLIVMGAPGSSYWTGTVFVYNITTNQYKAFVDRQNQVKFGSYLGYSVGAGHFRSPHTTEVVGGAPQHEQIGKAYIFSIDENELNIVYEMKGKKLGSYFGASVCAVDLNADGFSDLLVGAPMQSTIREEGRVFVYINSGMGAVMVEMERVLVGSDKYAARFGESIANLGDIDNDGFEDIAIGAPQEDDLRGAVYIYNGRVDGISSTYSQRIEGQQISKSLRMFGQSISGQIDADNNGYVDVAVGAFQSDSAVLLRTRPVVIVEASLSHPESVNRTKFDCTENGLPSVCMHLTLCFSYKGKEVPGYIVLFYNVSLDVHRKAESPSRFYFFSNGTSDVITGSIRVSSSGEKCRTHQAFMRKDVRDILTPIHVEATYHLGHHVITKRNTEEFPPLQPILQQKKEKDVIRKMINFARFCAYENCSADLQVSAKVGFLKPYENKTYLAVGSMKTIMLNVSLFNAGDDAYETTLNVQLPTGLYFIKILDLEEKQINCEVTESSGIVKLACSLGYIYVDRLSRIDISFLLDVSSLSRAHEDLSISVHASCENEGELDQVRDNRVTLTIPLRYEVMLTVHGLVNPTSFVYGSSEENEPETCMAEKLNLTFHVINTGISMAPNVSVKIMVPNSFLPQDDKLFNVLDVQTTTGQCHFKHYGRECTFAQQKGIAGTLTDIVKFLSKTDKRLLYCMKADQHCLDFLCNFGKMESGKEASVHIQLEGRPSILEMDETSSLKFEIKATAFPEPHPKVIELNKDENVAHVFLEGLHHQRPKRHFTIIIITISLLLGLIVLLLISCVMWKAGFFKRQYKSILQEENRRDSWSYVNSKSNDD
α4β1 integrin on mouse B16 melanoma cells and mouse RAW macrophage cells, sequence (P09055 21-798, chain 2 of 2): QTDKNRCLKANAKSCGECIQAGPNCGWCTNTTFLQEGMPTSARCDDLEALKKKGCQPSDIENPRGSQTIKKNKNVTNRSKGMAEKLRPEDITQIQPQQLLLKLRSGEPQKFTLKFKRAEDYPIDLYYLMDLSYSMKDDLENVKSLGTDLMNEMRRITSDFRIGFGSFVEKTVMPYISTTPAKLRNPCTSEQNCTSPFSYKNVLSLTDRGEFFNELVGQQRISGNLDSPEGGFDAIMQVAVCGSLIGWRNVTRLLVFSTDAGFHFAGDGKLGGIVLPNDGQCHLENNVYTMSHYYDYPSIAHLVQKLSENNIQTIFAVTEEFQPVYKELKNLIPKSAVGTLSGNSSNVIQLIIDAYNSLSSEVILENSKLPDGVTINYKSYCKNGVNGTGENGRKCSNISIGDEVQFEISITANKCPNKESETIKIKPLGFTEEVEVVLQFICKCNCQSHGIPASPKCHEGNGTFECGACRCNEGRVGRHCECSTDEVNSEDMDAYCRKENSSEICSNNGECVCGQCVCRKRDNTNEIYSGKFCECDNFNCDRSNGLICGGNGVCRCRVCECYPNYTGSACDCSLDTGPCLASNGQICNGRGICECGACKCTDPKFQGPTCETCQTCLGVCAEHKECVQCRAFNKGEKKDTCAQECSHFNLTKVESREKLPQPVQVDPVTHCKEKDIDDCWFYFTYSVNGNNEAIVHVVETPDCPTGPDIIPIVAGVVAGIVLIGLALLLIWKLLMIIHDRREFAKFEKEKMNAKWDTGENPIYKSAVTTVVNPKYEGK

α9β1 integrin on mouse RAW macrophage cells, sequence (B8JK39 29-1036, chain 1 of 2): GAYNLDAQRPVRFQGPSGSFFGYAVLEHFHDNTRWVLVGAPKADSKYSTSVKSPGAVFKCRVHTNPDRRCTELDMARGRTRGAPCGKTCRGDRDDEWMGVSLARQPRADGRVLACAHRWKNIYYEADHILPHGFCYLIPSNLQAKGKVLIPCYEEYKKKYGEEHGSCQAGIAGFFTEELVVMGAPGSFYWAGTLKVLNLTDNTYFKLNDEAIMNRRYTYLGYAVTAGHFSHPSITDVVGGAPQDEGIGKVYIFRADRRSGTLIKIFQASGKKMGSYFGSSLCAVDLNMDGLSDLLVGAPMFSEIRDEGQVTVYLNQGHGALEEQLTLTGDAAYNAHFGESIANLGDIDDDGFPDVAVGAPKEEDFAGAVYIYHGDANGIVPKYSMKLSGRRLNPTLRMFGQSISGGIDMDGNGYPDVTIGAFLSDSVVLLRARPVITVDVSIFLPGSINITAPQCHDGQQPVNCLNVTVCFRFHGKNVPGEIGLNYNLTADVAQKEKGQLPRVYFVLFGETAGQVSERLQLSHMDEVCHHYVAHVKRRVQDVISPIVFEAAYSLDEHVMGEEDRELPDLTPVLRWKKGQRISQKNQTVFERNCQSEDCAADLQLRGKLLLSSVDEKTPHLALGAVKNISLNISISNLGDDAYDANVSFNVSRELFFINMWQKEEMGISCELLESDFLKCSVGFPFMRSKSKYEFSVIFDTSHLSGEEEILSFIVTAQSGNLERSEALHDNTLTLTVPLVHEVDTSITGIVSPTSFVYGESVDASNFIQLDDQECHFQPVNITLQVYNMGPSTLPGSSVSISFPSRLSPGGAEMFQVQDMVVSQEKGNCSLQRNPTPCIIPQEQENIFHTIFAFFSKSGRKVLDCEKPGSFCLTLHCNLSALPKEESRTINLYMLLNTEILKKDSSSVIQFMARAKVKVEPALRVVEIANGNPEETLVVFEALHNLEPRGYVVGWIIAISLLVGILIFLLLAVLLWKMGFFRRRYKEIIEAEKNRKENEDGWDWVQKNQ
α9β1 integrin on mouse RAW macrophage cells, sequence (P09055 21-798, chain 2 of 2): as the sequence (P09055 21-798, chain 2 of 2) above

Take RGDSVVYGLR (ligand) [Thrombin-cleaved OPN-Arg (OPN-R)]: in test [1], the “PGE2 secretion in RAW cells” value is roughly 4.2 fold. Further, in test [2], the B16 cell adhesion was roughly 3.5 fold and the “PGE2 secretion in RAW cells” value is roughly 4.2 fold.
